Data from the supplement of paper PMC10567573.

B1: ETS1 (parent)
chain: FSEPSFITESYQTLHPISSEELLS
B2: ZNF263 (parent)
chain: CSECGESFSRSSRLMSHQRTHTG

Variants of: B1
Assay: protein stability index of a GFP-peptide fusion (GPS, HEK-293T) (PSI 1-6); higher = more stable
Details: c terminus: a fixed tail appended
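Further: lentivirally expressed fusions sorted by FACS into six bins by GFP to DsRed ratio, PSI derived from sequencing read proportions per bin multiplied by bin number.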

Protein stability index: each site, then its substitutions
I17: D 2.12 | H 1.76 | F 1.84 | A 2.33 | N 2.34 | G 1.81 | R 2.59 | W 2.06 | L 2.45 | P 2.34
E20: L 1.95 | I 1.78 | Y 1.72 | K 1.82 | T 2.08 | R 2.08 | M 2.28 | F 1.77
Y11: P 3.21 | V 1.78 | C 1.67 | A 2.21 | N 2.56 | E 2.95 | G 2.57 | H 2.25 | K 2.81 | T 2.3 | R 1.82 | S 2.2
E3: R 2.25 | C 1.7 | L 1.81 | S 2.21 | F 1.6 | I 1.77 | Y 2.23 | N 1.87 | M 1.9 | G 2
P4: V 1.49 | W 2.17 | Q 2.81 | H 2.54 | K 2.45 | T 2.65 | G 2.37 | C 2.2
T8: V 1.36 | K 2.32 | L 1.92 | G 2.05 | E 3.4
L14: I 1.94 | Y 1.55 | W 2.66 | C 1.93
E9: S 2.25 | C 2.25 | R 2.24 | W 2.06 | G 1.88 | Q 2.02 | L 1.5 | F 2.58 | D 1.88 | I 2.57 | M 2.32 | K 1.97
S5: T 2.1 | F 2.26 | H 1.58 | Q 1.75 | L 1.99 | D 2.51 | P 2.66 | W 2.11 | M 2.37 | Y 1.8 | G 2.09
S10: R 2.16 | Y 1.74 | A 1.74 | M 2.02 | V 2.52 | D 2.82 | K 2.25 | F 1.7 | Q 2.35 | L 2.52
Q12: D 2.52 | R 1.92 | S 1.88 | P 1.91 | A 2.1 | H 2.05
S24: I 1.85 | N 1.79 | M 1.97 | R 1.86 | C 1.5 | H 1.91 | V 1.62 | Q 2.16 | T 1.99 | K 2.49 | D 2.15
I7: N 4.24 | R 3.17 | D 4.01 | T 3.29 | L 2.19 | V 2.21 | S 3.55 | A 1.59 | G 2.33
F6: R 4.13 | E 4.53 | G 3.85 | Y 2.74 | L 3.22 | H 4.14 | M 3.48 | I 3.15 | Q 4.76
T13: H 1.62 | D 2.23 | Q 2.4 | M 1.28 | W 2.54
S18: D 2.33 | Y 2.24 | V 2.13 | P 2.08 | E 2.18 | G 1.8 | K 1.49 | L 1.99
S2: D 4.15 | K 3.34 | M 1.72 | N 3.37 | W 2.1 | R 2.66 | T 1.95 | H 2.46 | I 3.17 | C 2.38 | E 3.98 | L 1.49 | Y 2.62 | Q 1.65 | F 2.26 | P 1.95
L22: V 2.31 | S 2
H15: R 2.82 | V 2.49 | W 1.67 | K 2.33 | Y 1.51 | E 2.12 | P 2.27 | I 2.03 | F 1.95 | S 1.91
L23: M 2.03 | N 2.31 | Q 2.59 | H 2.61 | D 2.47 | P 2.14 | I 1.52 | W 1.81 | V 2.06
P16: V 2.16 | D 1.81 | E 1.95 | F 2.08 | R 1.69 | A 1.68 | H 1.81 | M 1.47 | L 3.29 | N 1.89 | T 1.9 | W 1.17 | Q 2.13 | Y 1.67 | S 2.21 | G 2.19
F1: S 4.07 | V 4.18 | R 4.2 | A 4.17 | C 3.52 | K 4.06 | N 4.24 | Y 2.1 | H 4.1 | G 4.4 | M 4 | Q 4.43 | E 4.56 | L 4.45
E21: T 2 | D 1.74 | Q 2.06 | H 2.24 | I 1.81 | W 1.99 | G 1.91 | V 2.2 | L 1.93 | F 1.99 | P 1.94
S19: A 1.7 | G 1.99 | N 2.35 | T 2.21 | Q 2.21 | W 2 | H 1.94 | C 1.78 | V 1.84 | D 2.31 | P 2.11 | L 1.81 | M 2.19

Variants of: B2
Assay: as above
Details: c terminus: native

Protein stability index: each site, then its substitutions
Q18: S 2.13 | P 2.22 | E 2.76 | M 4.32 | G 2.49 | N 2.16 | D 2.58 | K 2.22 | C 2.5 | T 2.24 | F 2.38 | H 2.57 | A 2.48 | W 2.77 | Y 2.39 | I 3.21 | L 3.02 | R 1.89
T22: V 3.03 | L 4.2 | N 2.29 | M 3.83 | F 3.75 | A 2.03 | D 4.27 | S 2.23 | I 2.95 | Y 2.25 | W 2.25 | C 2.08 | E 3.76 | Q 2.43
H21: W 1.87 | C 2.72 | M 1.45 | G 3.01 | K 1.78 | F 2.47 | T 1.6 | Y 2.64 | N 2.4 | L 2.52 | S 2.74 | E 2.15 | D 3.31
R19: L 3.49 | E 3.78 | P 2.44 | I 2.58 | S 3.46 | A 4.1 | H 4.51 | D 4.39 | C 5 | F 3.55 | K 5.13 | N 4.11 | Q 3.63 | V 2.73 | T 3.76 | M 3.43 | Y 3.63 | W 3.17
H17: Q 2.04 | Y 1.76 | W 3.17 | S 1.51 | N 1.57 | P 1.11 | T 1.46
G23: I 4.41 | E 4.44 | H 3.59 | T 4.04 | F 3.74 | K 4.89 | L 4.69 | P 4.52 | N 4.85 | W 3.79 | Y 3.29 | S 4 | R 4.2 | A 2.97 | C 3.33 | M 4.34 | V 3.56 | Q 4.16
T20: S 2.44 | K 3.72 | H 3.72 | I 4.43 | L 3.21 | A 3.7 | G 2.96 | V 2.9 | Q 3.26 | F 2.48 | M 1.95 | E 2.45 | D 3.75 | Y 2.08 | W 1.92 | C 2.35 | N 1.93
